# Experimental data taken from patent publication US20180044434A1 (PUBLIC UNIVERSITY CORPORATION YOKOHAMA CITY UNIVERSITY, published 2018).
# Residue numbers refer to the chain shown, from its start.
# B1: A11 (antibody, V domains shown)
# VH: AVTLDESGGGLQTPGGALSLVCKASGFDFSSYGMGWMRQAPGKGLEYVAAIRNDGSWTGYGAAVKGHATISRDNGQSTVRLQLNNLRAEDTGTYYCAKTTGSRGGSIDAWGHGTEVIVS
# VL: ASTQPSSVSANLGGTVEITCSGGGRYYYGWYQQKSPGSAPVTVIYANDKRPSDIPSRFSGSKSGSTGTLTITGVQAEDEAVYFCGSAETSSYVFGAGTTLTVL
# notes: Chicken variable regions in a mouse chimeric antibody (IgG1); also called anti-PAD4 antibody A11
# B2: E9 (antibody, V domains shown)
# VH: B1 VH with A17T, A24G, D28T, A62S, H67R, G92A, T100S, R103S, I107V
# VL: B1 VL
# notes: Chicken variable regions in a mouse chimeric antibody (IgG1); also called anti-PAD4 antibody E9
# B3: G9 (antibody, V domains shown)
# VH: B1 VH with D28T, S31T, G33A, H67R, S71L, N84S, T99Y, R103S, D108G
# VL: B1 VL with S2V, S6A
# notes: Chicken variable regions in a mouse chimeric antibody (IgG1); also called anti-PAD4 antibody G9
# Target: T1, TA0096 (peptide antigen corresponding to positions 340 to 356 of PAD4)
# T1 peptide: EENMDDQWMQDEMEIGY
# Assay: ELISA, coated peptide
row,Binder,OD 490/630 nm
1,B1,1.81
2,B2,1.79
3,B3,1.85

# Target: T2, Ala mutant of TA0096, SEQ ID NO: 27
# T2 peptide: AENMDDQWMQDEMEIGY
# Assay: ELISA, coated peptide
row,Binder,OD 490/630 nm
1,B1,1.95
2,B2,1.89
3,B3,1.93

# Target: T3, Ala mutant of TA0096, SEQ ID NO: 28
# T3 peptide: EANMDDQWMQDEMEIGY
# Assay: ELISA, coated peptide
row,Binder,OD 490/630 nm
1,B1,2
2,B2,2
3,B3,1.96

# Target: T4, Ala mutant of TA0096, SEQ ID NO: 29
# T4 peptide: EEAMDDQWMQDEMEIGY
# Assay: ELISA, coated peptide
row,Binder,OD 490/630 nm
1,B1,2.05
2,B2,1.92
3,B3,1.94

# Target: T5, Ala mutant of TA0096, SEQ ID NO: 30
# T5 peptide: EENADDQWMQDEMEIGY
# Assay: ELISA, coated peptide
row,Binder,OD 490/630 nm
1,B1,2.03
2,B2,1.91
3,B3,2.03

# Target: T6, Ala mutant of TA0096, SEQ ID NO: 31
# T6 peptide: EENMADQWMQDEMEIGY
# Assay: ELISA, coated peptide
row,Binder,OD 490/630 nm
1,B1,1.67
2,B2,1.38
3,B3,1.48

# Target: T7, Ala mutant of TA0096, SEQ ID NO: 33
# T7 peptide: EENMDDAWMQDEMEIGY
# Assay: ELISA, coated peptide
row,Binder,OD 490/630 nm
1,B1,2.09
2,B2,1.93
3,B3,1.98

# Target: T8, Ala mutant of TA0096, SEQ ID NO: 34
# T8 peptide: EENMDDQAMQDEMEIGY
# Assay: ELISA, coated peptide
row,Binder,OD 490/630 nm
1,B1,0.021
2,B2,0.047
3,B3,0.038

# Target: T9, Ala mutant of TA0096, SEQ ID NO: 35
# T9 peptide: EENMDDQWAQDEMEIGY
# Assay: ELISA, coated peptide
row,Binder,OD 490/630 nm
1,B1,0.023
2,B2,0.017
3,B3,0.253

# Target: T10, Ala mutant of TA0096, SEQ ID NO: 36
# T10 peptide: EENMDDQWMADEMEIGY
# Assay: ELISA, coated peptide
row,Binder,OD 490/630 nm
1,B1,1.91
2,B2,1.9
3,B3,1.87

# Target: T11, Ala mutant of TA0096, SEQ ID NO: 37
# T11 peptide: EENMDDQWMQAEMEIGY
# Assay: ELISA, coated peptide
row,Binder,OD 490/630 nm
1,B1,1.8
2,B2,1.2
3,B3,1.88

# Target: T12, Ala mutant of TA0096, SEQ ID NO: 38
# T12 peptide: EENMDDQWMQDAMEIGY
# Assay: ELISA, coated peptide
row,Binder,OD 490/630 nm
1,B1,1.89
2,B2,1.91
3,B3,1.96

# Target: T13, Ala mutant of TA0096, SEQ ID NO: 39
# T13 peptide: EENMDDQWMQDEAEIGY
# Assay: ELISA, coated peptide
row,Binder,OD 490/630 nm
1,B1,1.89
2,B2,1.77
3,B3,1.87

# Target: T14, Ala mutant of TA0096, SEQ ID NO: 40
# T14 peptide: EENMDDQWMQDEMAIGY
# Assay: ELISA, coated peptide
row,Binder,OD 490/630 nm
1,B1,1.85
2,B2,1.82
3,B3,1.88

# Target: T15, Ala mutant of TA0096, SEQ ID NO: 41
# T15 peptide: EENMDDQWMQDEMEAGY
# Assay: ELISA, coated peptide
row,Binder,OD 490/630 nm
1,B1,1.85
2,B2,1.8
3,B3,1.89

# Target: T16, Ala mutant of TA0096, SEQ ID NO: 42
# T16 peptide: EENMDDQWMQDEMEIAY
# Assay: ELISA, coated peptide
row,Binder,OD 490/630 nm
1,B1,1.88
2,B2,1.83
3,B3,1.85

# Target: T17, Ala mutant of TA0096, SEQ ID NO: 43
# T17 peptide: EENMDDQWMQDEMEIGA
# Assay: ELISA, coated peptide
row,Binder,OD 490/630 nm
1,B1,1.92
2,B2,1.88
3,B3,1.88

# Target: T18, Ala mutant having 3-amino acid substitution, SEQ ID NO: 44
# T18 peptide: AAAMDDQWMQDEMEIGY
# Assay: ELISA, coated peptide
row,Binder,OD 490/630 nm
1,B1,1.98
2,B2,1.9
3,B3,1.92

# Target: T19, Ala mutant having 3-amino acid substitution, SEQ ID NO: 45
# T19 peptide: EENAAAQWMQDEMEIGY
# Assay: ELISA, coated peptide
row,Binder,OD 490/630 nm
1,B1,0.039
2,B2,0.022
3,B3,0.019

# Target: T20, Ala mutant having 3-amino acid substitution, SEQ ID NO: 47
# T20 peptide: EENMDDQWMAAAMEIGY
# Assay: ELISA, coated peptide
row,Binder,OD 490/630 nm
1,B1,1.25
2,B2,1.34
3,B3,1.85

# Target: T21, Ala mutant having 3-amino acid substitution, SEQ ID NO: 48
# T21 peptide: EENMDDQWMQDEAAAGY
# Assay: ELISA, coated peptide
row,Binder,OD 490/630 nm
1,B1,1.87
2,B2,1.81
3,B3,1.89

# Target: T22, Ala mutant having 3-amino acid substitution, SEQ ID NO: 49
# T22 peptide: EENMDDQWMQDEMEIAA
# Assay: ELISA, coated peptide
row,Binder,OD 490/630 nm
1,B1,1.89
2,B2,1.85
3,B3,1.92

# Target: T23, full-length recombinant mouse PAD4 (mouse, UniProt Q9Z183 1-666)
# T23 construct: mature; Full-length recombinant
# T23 sequence (Q9Z183 whole entry): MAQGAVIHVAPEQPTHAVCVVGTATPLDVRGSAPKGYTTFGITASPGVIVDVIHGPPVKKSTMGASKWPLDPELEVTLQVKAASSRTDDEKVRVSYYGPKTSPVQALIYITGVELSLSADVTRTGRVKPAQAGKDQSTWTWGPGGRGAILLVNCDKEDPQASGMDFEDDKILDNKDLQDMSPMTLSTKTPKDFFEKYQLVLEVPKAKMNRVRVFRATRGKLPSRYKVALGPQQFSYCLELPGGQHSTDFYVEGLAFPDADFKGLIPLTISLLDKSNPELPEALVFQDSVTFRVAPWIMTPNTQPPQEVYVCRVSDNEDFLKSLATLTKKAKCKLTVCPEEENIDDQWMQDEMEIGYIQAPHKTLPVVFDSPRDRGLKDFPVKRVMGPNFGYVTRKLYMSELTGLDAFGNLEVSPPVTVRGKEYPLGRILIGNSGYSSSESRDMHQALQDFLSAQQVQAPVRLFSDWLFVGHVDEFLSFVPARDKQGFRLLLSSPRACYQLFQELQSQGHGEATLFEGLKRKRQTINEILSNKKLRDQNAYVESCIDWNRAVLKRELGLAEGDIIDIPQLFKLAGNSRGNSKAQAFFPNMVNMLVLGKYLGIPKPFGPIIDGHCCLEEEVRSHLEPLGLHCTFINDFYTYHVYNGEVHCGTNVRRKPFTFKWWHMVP
# Assay: ELISA, coated mouse PAD4; antibody 1 ug/mL
row,Binder,OD 490/630 nm
1,B1,2.24
2,B2,2.23
3,B3,2.3

# Target: T23, full-length recombinant mouse PAD4
# Assay: ELISA, coated mouse PAD4; antibody 0.25 ug/mL
row,Binder,OD 490/630 nm
1,B1,2.25
2,B2,2.23
3,B3,2.25

# Target: T23, full-length recombinant mouse PAD4
# Assay: ELISA, coated mouse PAD4; antibody 0.0625 ug/mL
row,Binder,OD 490/630 nm
1,B1,2.24
2,B2,2.19
3,B3,2.24

# Target: T23, full-length recombinant mouse PAD4
# Assay: ELISA, coated mouse PAD4; antibody 0.015625 ug/mL
row,Binder,OD 490/630 nm
1,B1,2.02
2,B2,1.86
3,B3,2.21

# Target: T24, full-length recombinant human PAD4 (human, UniProt Q9UM07 1-663)
# T24 construct: Full-length recombinant; also called peptidylarginine deiminase 4
# T24 sequence (Q9UM07 whole entry): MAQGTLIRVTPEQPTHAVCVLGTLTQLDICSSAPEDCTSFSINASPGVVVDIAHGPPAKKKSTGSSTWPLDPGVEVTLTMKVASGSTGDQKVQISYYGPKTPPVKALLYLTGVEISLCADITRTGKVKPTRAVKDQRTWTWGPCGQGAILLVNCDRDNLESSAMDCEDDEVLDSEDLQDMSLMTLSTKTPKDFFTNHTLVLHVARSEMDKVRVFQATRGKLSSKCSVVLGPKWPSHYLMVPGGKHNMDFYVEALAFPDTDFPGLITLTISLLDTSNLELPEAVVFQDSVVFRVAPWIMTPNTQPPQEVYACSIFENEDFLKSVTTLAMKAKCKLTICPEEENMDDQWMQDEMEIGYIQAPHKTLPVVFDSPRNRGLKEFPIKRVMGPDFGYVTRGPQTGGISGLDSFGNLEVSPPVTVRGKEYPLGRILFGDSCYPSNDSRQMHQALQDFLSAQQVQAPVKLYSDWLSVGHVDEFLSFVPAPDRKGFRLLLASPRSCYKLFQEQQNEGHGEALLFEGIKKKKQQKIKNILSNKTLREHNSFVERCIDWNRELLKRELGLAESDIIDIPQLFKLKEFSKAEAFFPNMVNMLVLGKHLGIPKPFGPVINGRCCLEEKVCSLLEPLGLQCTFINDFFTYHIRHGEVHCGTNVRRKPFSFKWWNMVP
# Assay: ELISA, coated human PAD4; antibody 0.0009766 ug/mL
row,Binder,OD 490/630 nm
1,B1,0.511
2,B2,0.489
3,B3,0.534

# Target: T24, full-length recombinant human PAD4
# Assay: ELISA, coated human PAD4; antibody 0.0039063 ug/mL
row,Binder,OD 490/630 nm
1,B1,1.31
2,B2,1.36
3,B3,1.36

# Target: T23, full-length recombinant mouse PAD4
# Assay: ELISA, coated mouse PAD4; antibody 0.0039063 ug/mL
row,Binder,OD 490/630 nm
1,B1,1.07
2,B2,0.956
3,B3,1.39

# Target: T24, full-length recombinant human PAD4
# Assay: SPR (Biacore T200), antibody captured, human PAD4 analyte
# Method: Biacore (GE Healthcare, Biacore T200) was carried out to evaluate the affinity of A11 etc., toward human PAD4. A Mouse Antibody Capture kit (GE Healthcare, BR-1008-38) was used for the affinity assay. Specifically, in accordance with the standard protocol provided by the manufacture, NHS/EDC was used and an amine coupling method, in which a free carboxyl group is fixed on a surface of a CM5 chip, was used to immobilize a rabbit anti-mouse polyclonal antibody on the surface of a CM5 chip. Next, A11 etc., were each captured by the rabbit anti-mouse polyclonal antibody. L207 was likewise captured. Then, human PAD4 at each concentration was subjected to Biacore T200 measurement to create a kinetic sensorgram.
Binder,Kd [nM],koff [s⁻¹],kon [M⁻¹ s⁻¹]
B1,4.37,0.000566,129000
B2,5.52,0.000837,152000
B3,3.16,0.000284,90000
